Test results as given in patent US20230159662A1 (Kyowa Kirin, published 2023).

Target: human CD16a (Val type) stably expressed on NK-92 cells (NK-92/CD16 transfectant) (human, UniProt P08637 17-254)
Experiment: cell-based or functional assay

human CD16a (Val type) stably expressed on NK-92 cells (NK-92/CD16 transfectant), sequence (P08637 17-254 F176V): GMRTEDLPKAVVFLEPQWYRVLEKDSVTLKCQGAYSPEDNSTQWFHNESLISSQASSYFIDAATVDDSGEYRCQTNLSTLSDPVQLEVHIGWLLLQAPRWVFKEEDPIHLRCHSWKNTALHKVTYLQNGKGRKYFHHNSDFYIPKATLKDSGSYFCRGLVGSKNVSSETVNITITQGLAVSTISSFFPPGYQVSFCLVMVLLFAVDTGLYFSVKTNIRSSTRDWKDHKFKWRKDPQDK

relative ADCC activity (AAA = 100) | Binder
3 relative, AAA at 0.1 µg/mL = 100 | human IgG1 anti-human CCR4 antibody (KM2160), F243L/R292P/Y300L (antibody) heavy: EVQLVESGGDLMKPGGSLKISCAASGFIFSNYGMSWVRQTPDMRLEWVATISSASTYSYYPDSVKGRFTISRDNAENSLYLQMNSLRSEDTGIYYCGRHSDGNFAFGYWGRGTLVTVSAASTKGPSVFPLAPSSKSTSGGTAALGCLVKDYFPEPVTVSWNSGALTSGVHTFPAVLQSSGLYSLSSVVTVPSSSLGTQTYICNVNHKPSNTKVDKKVEPKSCDKTHTCPPCPAPELLGGPSVFLLPPKPKDTLMISRTPEVTCVVVDVSHEDPEVKFNWYVDGVEVHNAKTKPPEEQYNSTLRVVSVLTVLHQDWLNGKEYKCKVSNKALPAPIEKTISKAKGQPREPQVYTLPPSRDELTKNQVSLTCLVKGFYPSDIAVEWESNGQPENNYKTTPPVLDSDGSFFLYSKLTVDKSRWQQGNVFSCSVMHEALHNHYTQKSLSLSPGK light: DVLMTQTPLSLPVSLGDQASISCRSSRNIVHINGDTYLEWYLQRPGQSPKLLIYKVSNRFSGVPDRFSGSGSGTDFTLKISRVEAEDLGVYYCFQGSLLPWTFGGGTRLEIRRTVAAPSVFIFPPSDEQLKSGTASVVCLLNNFYPREAKVQWKVDNALQSGNSQESVTEQDSKDSTYSLSSTLTLSKADYEKHKVYACEVTHQGLSSPVTKSFNRGEC
-38 relative, AAA at 0.1 µg/mL = 100 | human IgG1 anti-human CCR4 antibody (KM2160), G316D/A378V/D399E (antibody) heavy: EVQLVESGGDLMKPGGSLKISCAASGFIFSNYGMSWVRQTPDMRLEWVATISSASTYSYYPDSVKGRFTISRDNAENSLYLQMNSLRSEDTGIYYCGRHSDGNFAFGYWGRGTLVTVSAASTKGPSVFPLAPSSKSTSGGTAALGCLVKDYFPEPVTVSWNSGALTSGVHTFPAVLQSSGLYSLSSVVTVPSSSLGTQTYICNVNHKPSNTKVDKKVEPKSCDKTHTCPPCPAPELLGGPSVFLFPPKPKDTLMISRTPEVTCVVVDVSHEDPEVKFNWYVDGVEVHNAKTKPREEQYNSTYRVVSVLTVLHQDWLNDKEYKCKVSNKALPAPIEKTISKAKGQPREPQVYTLPPSRDELTKNQVSLTCLVKGFYPSDIVVEWESNGQPENNYKTTPPVLESDGSFFLYSKLTVDKSRWQQGNVFSCSVMHEALHNHYTQKSLSLSPGK light: DVLMTQTPLSLPVSLGDQASISCRSSRNIVHINGDTYLEWYLQRPGQSPKLLIYKVSNRFSGVPDRFSGSGSGTDFTLKISRVEAEDLGVYYCFQGSLLPWTFGGGTRLEIRRTVAAPSVFIFPPSDEQLKSGTASVVCLLNNFYPREAKVQWKVDNALQSGNSQESVTEQDSKDSTYSLSSTLTLSKADYEKHKVYACEVTHQGLSSPVTKSFNRGEC
-110 relative, AAA at 0.1 µg/mL = 100 | human IgG1 anti-human CCR4 antibody (KM2160), K334E/T359N/T366S (antibody) heavy: EVQLVESGGDLMKPGGSLKISCAASGFIFSNYGMSWVRQTPDMRLEWVATISSASTYSYYPDSVKGRFTISRDNAENSLYLQMNSLRSEDTGIYYCGRHSDGNFAFGYWGRGTLVTVSAASTKGPSVFPLAPSSKSTSGGTAALGCLVKDYFPEPVTVSWNSGALTSGVHTFPAVLQSSGLYSLSSVVTVPSSSLGTQTYICNVNHKPSNTKVDKKVEPKSCDKTHTCPPCPAPELLGGPSVFLFPPKPKDTLMISRTPEVTCVVVDVSHEDPEVKFNWYVDGVEVHNAKTKPREEQYNSTYRVVSVLTVLHQDWLNGKEYKCKVSNKALPAPIEETISKAKGQPREPQVYTLPPSRDELNKNQVSLSCLVKGFYPSDIAVEWESNGQPENNYKTTPPVLDSDGSFFLYSKLTVDKSRWQQGNVFSCSVMHEALHNHYTQKSLSLSPGK light: DVLMTQTPLSLPVSLGDQASISCRSSRNIVHINGDTYLEWYLQRPGQSPKLLIYKVSNRFSGVPDRFSGSGSGTDFTLKISRVEAEDLGVYYCFQGSLLPWTFGGGTRLEIRRTVAAPSVFIFPPSDEQLKSGTASVVCLLNNFYPREAKVQWKVDNALQSGNSQESVTEQDSKDSTYSLSSTLTLSKADYEKHKVYACEVTHQGLSSPVTKSFNRGEC
53 relative, AAA at 0.1 µg/mL = 100 | human IgG1 anti-human CCR4 antibody (KM2160), P230A/E233D/I332E (antibody) heavy: EVQLVESGGDLMKPGGSLKISCAASGFIFSNYGMSWVRQTPDMRLEWVATISSASTYSYYPDSVKGRFTISRDNAENSLYLQMNSLRSEDTGIYYCGRHSDGNFAFGYWGRGTLVTVSAASTKGPSVFPLAPSSKSTSGGTAALGCLVKDYFPEPVTVSWNSGALTSGVHTFPAVLQSSGLYSLSSVVTVPSSSLGTQTYICNVNHKPSNTKVDKKVEPKSCDKTHTCPPCAAPALLGGPSVFLFPPKPKDTLMISRTPEVTCVVVDVSHEDPEVKFNWYVDGVEVHNAKTKPREEQYNSTYRVVSVLTVLHQDWLNGKEYKCKVSNKALPAPEEKTISKAKGQPREPQVYTLPPSRDELTKNQVSLTCLVKGFYPSDIAVEWESNGQPENNYKTTPPVLDSDGSFFLYSKLTVDKSRWQQGNVFSCSVMHEALHNHYTQKSLSLSPGK light: DVLMTQTPLSLPVSLGDQASISCRSSRNIVHINGDTYLEWYLQRPGQSPKLLIYKVSNRFSGVPDRFSGSGSGTDFTLKISRVEAEDLGVYYCFQGSLLPWTFGGGTRLEIRRTVAAPSVFIFPPSDEQLKSGTASVVCLLNNFYPREAKVQWKVDNALQSGNSQESVTEQDSKDSTYSLSSTLTLSKADYEKHKVYACEVTHQGLSSPVTKSFNRGEC
-131 relative, AAA at 0.1 µg/mL = 100 | human IgG1 anti-human CCR4 antibody (KM2160), K288N/A330S/P396L (antibody) heavy: EVQLVESGGDLMKPGGSLKISCAASGFIFSNYGMSWVRQTPDMRLEWVATISSASTYSYYPDSVKGRFTISRDNAENSLYLQMNSLRSEDTGIYYCGRHSDGNFAFGYWGRGTLVTVSAASTKGPSVFPLAPSSKSTSGGTAALGCLVKDYFPEPVTVSWNSGALTSGVHTFPAVLQSSGLYSLSSVVTVPSSSLGTQTYICNVNHKPSNTKVDKKVEPKSCDKTHTCPPCPAPELLGGPSVFLFPPKPKDTLMISRTPEVTCVVVDVSHEDPEVKFNWYVDGVEVHNANTKPREEQYNSTYRVVSVLTVLHQDWLNGKEYKCKVSNKALPSPIEKTISKAKGQPREPQVYTLPPSRDELTKNQVSLTCLVKGFYPSDIAVEWESNGQPENNYKTTPLVLDSDGSFFLYSKLTVDKSRWQQGNVFSCSVMHEALHNHYTQKSLSLSPGK light: DVLMTQTPLSLPVSLGDQASISCRSSRNIVHINGDTYLEWYLQRPGQSPKLLIYKVSNRFSGVPDRFSGSGSGTDFTLKISRVEAEDLGVYYCFQGSLLPWTFGGGTRLEIRRTVAAPSVFIFPPSDEQLKSGTASVVCLLNNFYPREAKVQWKVDNALQSGNSQESVTEQDSKDSTYSLSSTLTLSKADYEKHKVYACEVTHQGLSSPVTKSFNRGEC
-9 relative, AAA at 0.1 µg/mL = 100 | human IgG1 anti-human CCR4 antibody (KM2160), F243L/R292P/Y300L/V305I/P396L (antibody) heavy: EVQLVESGGDLMKPGGSLKISCAASGFIFSNYGMSWVRQTPDMRLEWVATISSASTYSYYPDSVKGRFTISRDNAENSLYLQMNSLRSEDTGIYYCGRHSDGNFAFGYWGRGTLVTVSAASTKGPSVFPLAPSSKSTSGGTAALGCLVKDYFPEPVTVSWNSGALTSGVHTFPAVLQSSGLYSLSSVVTVPSSSLGTQTYICNVNHKPSNTKVDKKVEPKSCDKTHTCPPCPAPELLGGPSVFLLPPKPKDTLMISRTPEVTCVVVDVSHEDPEVKFNWYVDGVEVHNAKTKPPEEQYNSTLRVVSILTVLHQDWLNGKEYKCKVSNKALPAPIEKTISKAKGQPREPQVYTLPPSRDELTKNQVSLTCLVKGFYPSDIAVEWESNGQPENNYKTTPLVLDSDGSFFLYSKLTVDKSRWQQGNVFSCSVMHEALHNHYTQKSLSLSPGK light: DVLMTQTPLSLPVSLGDQASISCRSSRNIVHINGDTYLEWYLQRPGQSPKLLIYKVSNRFSGVPDRFSGSGSGTDFTLKISRVEAEDLGVYYCFQGSLLPWTFGGGTRLEIRRTVAAPSVFIFPPSDEQLKSGTASVVCLLNNFYPREAKVQWKVDNALQSGNSQESVTEQDSKDSTYSLSSTLTLSKADYEKHKVYACEVTHQGLSSPVTKSFNRGEC
